# Reference: EP1605964B1 (GEORG-SPEYER-HAUS CHEMOTHERAPEUTISCHES FORSCHUNGSINSTITUT, dated 2004)
# Target: T1, Gal4 DNA binding domain alone (UniProt P04386 1-147)
# T1 construct: Negative control bait in the yeast two-hybrid retransformation
# Experiment: yeast two-hybrid, retransformation of rescued plasmids
# T1 sequence (P04386 1-147 limits assumed): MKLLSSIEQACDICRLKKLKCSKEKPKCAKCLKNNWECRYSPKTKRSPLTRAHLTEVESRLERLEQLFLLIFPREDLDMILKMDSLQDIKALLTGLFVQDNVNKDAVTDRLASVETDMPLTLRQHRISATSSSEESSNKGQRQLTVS
row,Binder,binding result
1,"peptide aptamer KDI3 (SEQ ID NO:2), displayed in E. coli thioredoxin A (TrxA) (designed binder, not shown: large carriers, Built as the yeast two-hybrid prey; The construct used in the GST pulldown is not described) MSDKIIHLTDDSFDTDVLKADGAILVDFWAEWCGTFSPVVLLYRLFLATVLIWAPCKMIAPILDEIADEYQGKLTVAKLNIDQNPGTAPKYGIRGIPTLLLFKNGEVAATKVGALSKGQLKEFLDANLA",no binding
2,"peptide aptamer KDI1 (SEQ ID NO:1), displayed in E. coli thioredoxin A (TrxA) (designed binder, not shown: large carriers, The construct used in the GST pulldown is not described) MSDKIIHLTDDSFDTDVLKADGAILVDFWAEWCGVFGVSWVVGFWCQMHRRLVCPCKMIAPILDEIADEYQGKLTVAKLNIDQNPGTAPKYGIRGIPTLLLFKNGEVAATKVGALSKGQLKEFLDANLA",no binding
3,"peptide aptamer KDI4 (SEQ ID NO:3), displayed in E. coli thioredoxin A (TrxA) (designed binder, not shown: large carriers, Built as the yeast two-hybrid prey; The construct used in the GST pulldown is not described) MSDKIIHLTDDSFDTDVLKADGAILVDFWAEWCGLSFQLSPLSLVHRWGTTVDVPCKMIAPILDEIADEYQGKLTVAKLNIDQNPGTAPKYGIRGIPTLLLFKNGEVAATKVGALSKGQLKEFLDANLA",no binding
